Data taken from patent US20180237536A1 (INNATE PHARMA, published 2018).

T1: human CD73 expressed at the cell surface (human, UniProt P21589 27-549)
T1 construct: also called huCD73; cellular CD73
T1 sequence: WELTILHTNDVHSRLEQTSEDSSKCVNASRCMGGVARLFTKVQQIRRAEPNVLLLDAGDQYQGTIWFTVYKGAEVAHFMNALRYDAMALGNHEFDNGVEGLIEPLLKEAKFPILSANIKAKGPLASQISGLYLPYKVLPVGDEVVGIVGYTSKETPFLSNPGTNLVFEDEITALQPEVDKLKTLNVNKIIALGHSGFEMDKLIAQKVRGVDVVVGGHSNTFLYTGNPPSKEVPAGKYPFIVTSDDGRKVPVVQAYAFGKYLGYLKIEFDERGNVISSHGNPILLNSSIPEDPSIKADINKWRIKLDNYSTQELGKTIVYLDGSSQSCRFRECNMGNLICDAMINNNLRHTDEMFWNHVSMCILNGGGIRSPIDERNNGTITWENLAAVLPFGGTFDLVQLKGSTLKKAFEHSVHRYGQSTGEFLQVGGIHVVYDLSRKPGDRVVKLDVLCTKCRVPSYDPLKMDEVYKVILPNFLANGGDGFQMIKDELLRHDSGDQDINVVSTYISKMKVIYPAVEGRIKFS

T2: recombinant human CD73-His extracellular domain protein (soluble dimer) (human, UniProt P21589 27-547)
T2 sequence: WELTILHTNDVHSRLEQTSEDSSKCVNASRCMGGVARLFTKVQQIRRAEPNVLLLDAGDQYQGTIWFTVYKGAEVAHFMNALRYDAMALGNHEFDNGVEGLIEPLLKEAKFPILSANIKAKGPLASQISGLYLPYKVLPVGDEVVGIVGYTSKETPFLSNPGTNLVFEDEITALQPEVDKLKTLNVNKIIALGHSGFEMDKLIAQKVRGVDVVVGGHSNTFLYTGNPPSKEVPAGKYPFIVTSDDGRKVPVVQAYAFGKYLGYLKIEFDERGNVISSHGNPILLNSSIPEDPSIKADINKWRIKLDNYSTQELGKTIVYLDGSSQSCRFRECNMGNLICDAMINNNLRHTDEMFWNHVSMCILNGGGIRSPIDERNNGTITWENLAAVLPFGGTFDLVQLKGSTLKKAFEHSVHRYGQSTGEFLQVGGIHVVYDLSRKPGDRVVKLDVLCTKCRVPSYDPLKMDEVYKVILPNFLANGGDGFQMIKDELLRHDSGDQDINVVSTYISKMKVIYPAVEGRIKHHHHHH

T3: human CD73 mutant 3 (human, UniProt P21589 27-549)
T3 construct: Expressed on transfected HEK293T cells
T3 chain: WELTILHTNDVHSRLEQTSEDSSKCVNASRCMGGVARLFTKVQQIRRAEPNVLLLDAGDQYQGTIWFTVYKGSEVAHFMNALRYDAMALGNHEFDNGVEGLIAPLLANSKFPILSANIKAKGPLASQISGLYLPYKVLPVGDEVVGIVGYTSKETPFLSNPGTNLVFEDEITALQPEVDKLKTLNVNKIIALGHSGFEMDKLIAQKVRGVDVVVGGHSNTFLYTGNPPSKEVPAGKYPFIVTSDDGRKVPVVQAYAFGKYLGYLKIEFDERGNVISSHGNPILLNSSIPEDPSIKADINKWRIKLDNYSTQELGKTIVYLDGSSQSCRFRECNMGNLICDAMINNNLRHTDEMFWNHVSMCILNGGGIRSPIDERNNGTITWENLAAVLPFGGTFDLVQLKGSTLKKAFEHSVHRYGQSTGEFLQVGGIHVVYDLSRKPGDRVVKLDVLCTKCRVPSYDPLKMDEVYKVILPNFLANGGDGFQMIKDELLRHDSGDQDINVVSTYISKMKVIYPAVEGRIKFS


Columns and labels:
[1] = molecular target: T1, human CD73 expressed at the cell surface; assay: flow cytometry titration on human CD73-expressing recombinant host cells, PE secondary, median of fluorescence
Method: MDA-MB-231 cells are available from ATCC (reference HTB-26). 10⁵ cells resuspended in PBS/0.2% BSA/0.02% NaN3 (named “staining buffer”) are distributed into round bottom 96W-microplates. Dose-range of anti-CD73 antibodies was added to the plates and cells are incubated for 45 min at 4° C. Cells were washed three times in staining buffer by spinning plates at 400 g for 3 min at 4° C. PE-coupled goat anti-mouse or goat anti-human IgG Fc fragment secondary antibodies (Beckman Coulter) diluted in staining buffer were added to the cells and plates are incubated for 30 additional minutes at 4° C. Cells were washed three times as described above and analyzed on an Accury C6 flow cytometer equipped with an HTFC plate reader.
Median of fluorescence vs. antibodies concentration was plotted on graphs and EC50 is calculated using GraphPad Prism program.

[2] = molecular target: T1, human CD73 expressed at the cell surface; assay: cell-based or functional assay
[3] = molecular target: T2, recombinant human CD73-His …; assay: cell-based or functional assay
[4] = molecular target: T1, human CD73 expressed at the cell surface; assay: cell-based or functional assay; remark: listed apart in the source
[5] = molecular target: T4, cynomolgus CD73 expressed on recombinant host cells (cynomolgus); assay: flow cytometry titration on cynomolgus CD73-expressing recombinant host cells, PE secondary, median of fluorescence
T4 construct: whole, on cells; also called cynoCD73

[6] = molecular target: T3, human CD73 mutant 3; assay: flow cytometry on transfected HEK293T cells
Method: CD73 mutants are generated by PCR. The sequences amplified are run on agarose gel and purified using the Macherey Nagel PCR Clean-Up Gel Extraction kit (reference 740609). The purified PCR products generated for each mutant are then ligated into an expression vector, with the ClonTech InFusion system. The vectors containing the mutated sequences are prepared as Miniprep and sequenced. After sequencing, the vectors containing the mutated sequences are prepared as Midiprep using the Promega PureYield™ Plasmid Midiprep System. HEK293T cells are grown in DMEM medium (Invitrogen), transfected with vectors using Invitrogen's Lipofectamine 2000 and incubated at 37° C. in a CO2 incubator for 24 hours prior to testing for transgene expression
Anti-CD73 antibodies are tested for their binding to each mutant by flow cytometry. A first experiment is performed to determine antibodies that lose their binding to one or several mutants at one concentration. To confirm a loss of binding, titration of antibodies is done on antibodies for which binding seemed to be affected by the CD73 mutations (1-0.1-0.01-0.001 μg/ml). Antibodies 11E1, 8C7, 3C12 or 6E1 lost binding to mutant 3 of CD73, but not to any other mutant. […] Antibody 7G2 lost binding to mutants 5, 6 and 7 (but not mutants 2 or 3).

Binder | EC50 (read off the curve) [1] [µg/mL] | EC50 for neutralization of cellular CD73 enzymatic activity (mean over MDA-MB-231, H292, A375) [2] [µg/mL] | EC70 for neutralization of cellular CD73 enzymatic activity (mean over MDA-MB-231, H292, A375) [2] [µg/mL] | EC100 for neutralization of cellular CD73 enzymatic activity (mean over MDA-MB-231, H292, A375) [2] [µg/mL] | EC50 for CD73 blockade (enzymatic activity of soluble recombinant CD73-his, Cell Titer Glo) [3] [µg/mL] | EC50 for neutralization of enzymatic activity of cellular CD73 (MDA-MB-231, free phosphate from AMP) [4] [µg/mL] | EC50 (read off the curve) [5] [µg/mL] | binding result [6]
antibody 11E1 (antibody, human IgG1, V domains shown, also called 1E11) VH: EIQLQQSGPELVKPGASVKVSCKASGYAFTSYNMYWVKQSHGKSLEWIGYIDPYNGGTSYNQKFKGKATLTVDKSSSTAYMHLNSLTSEDSAVYYCARGYGNYKAWFAYWGQGTLVTVSA VL: DAVMTQTPKFLLVSAGDRVTITCKASQSVTNDVAWYQQKPGQSPKLLIYYASNRYTGVPDRFTGSGYGTDFTFTISTVQAEDLAVYFCQQDYSSLTFGAGTKLELK | ~0.5 | 0.1 | 0.15 | 0.52 | 0.41 | 0.195 | ~0.5 | 
antibody 8C7 (antibody, human IgG1, V domains shown) VH: EVQLQQSGPELVKPGASVKVSCKASGYAFASYNMNWVKQSHGKSLDWIGYIDPYNGGSSYNLTFKGKATLTVDKSSTTAYMHLNSLTSEDSAVYYCARGYGNYKAWFAYWGQGTLVTVSA VL: SIVMTPTPKFLLVSAGDRVTITCKASQSVSNDVAWYQQKPGQSPKLLIYYASTRYTGVPDRFTGSGYGTDFTFTISTVQAEDLAVYFCQQDYSSLTFGAGTKLELKR |  | 0.21 | 0.46 | 0.72 | 1.29 | 0.319 |  | no binding (tested: 1-0.1-0.01-0.001 µg/ml)
antibody 6E1 (antibody, human IgG1, V domains shown) VH: EFQLQQSGPELVKPGASVKVSCKASGYAFTSYNMYWVKQSHGKRLEWIGYIDPYNGGSSYNQKFKGKATLTVDKSSSTAYMHLNNLTSEDSAVYYCARGYNNYKAWFAYWGQGTLVTVSA VL: SIVMTQTPKFLLVSAGDRVTITCKASQSVTNDVAWYQQKPGQSPKLLIYYASNRYTGVPDRFTGSGYGTDFTFTISTMQAEDLAVYFCQQDYSSLTFGAGTKLELK | ~0.5 | 0.13 | 0.19 | 0.68 | 0.33 | 0.209 |  | 
antibody 3C12 (antibody, human IgG1, V domains shown) VH: QIQLQQSGPELVKPGASVKVSCKASGYAFASYNMNWVKQSHGKSLDWIGYIDPYNGGSSYNLTFKGKATLTVDKSSTTAYMHLNSLTSEDSAVYYCARGYGNYKAWFAYWGQGTLVTVSA VL: DVVMTQTPKFLLVSAGDRVTITCKASQSVSNDVAWYQQKPGQSPKLLIYYASTRYTGVPDRFTGSGYGTDFTFTISTVQAEDLAVYFCQQDYSSLTFGAGTKLELKR |  | 0.14 | 0.18 | 0.3 | 0.41 | 0.21 |  | 
